Assays:
LexA-Trx1 fusion protein = LexA-Trx1 fusion protein (UniProt P22217); assay: yeast one-hybrid interaction assay
[1] = biological target: histidine-tagged human thioredoxin (human) (UniProt P10599); assay: pull-down
Sequence of UniProt P10599 (P10599 whole entry): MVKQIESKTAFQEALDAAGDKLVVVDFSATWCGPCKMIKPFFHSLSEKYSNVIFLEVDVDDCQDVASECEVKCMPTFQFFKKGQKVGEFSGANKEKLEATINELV

Sequence of UniProt P22217 (P22217 2-103): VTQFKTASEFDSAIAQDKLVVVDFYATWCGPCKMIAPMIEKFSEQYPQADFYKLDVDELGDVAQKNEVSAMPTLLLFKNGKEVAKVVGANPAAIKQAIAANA

| Substance | β-gal activity (nmol ONP / min 10^7 cells) (LexA-Trx1 fusion protein) | Kd [1] [nM] |
| --- | --- | --- |
| human p53 expressed in yeast from pRS415-p53 (from UniProt P04637 1-393) (natural protein) | 6.56 |  |
| purified baculovirus-expressed human p53 (from UniProt P04637 1-393) (natural protein) |  | 940 |
